The target in test [1] is T1, canine IL-13 (canine, UniProt Q9N0W9 19-131, limits assumed, biotin-labeled in the Octet assay (site not stated)).
T1 construct: Biotin-labeled and loaded on SA biosensors for the kinetics; unlabeled in the DH82 cell assay; also called cIL-13; canine Interleukin-13
T1 sequence (looked up): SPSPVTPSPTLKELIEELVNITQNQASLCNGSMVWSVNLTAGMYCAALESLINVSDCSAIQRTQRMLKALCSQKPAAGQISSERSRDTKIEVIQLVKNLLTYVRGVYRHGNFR
The test is described as follows: BLI (Octet HTX), biotin-cIL-13 on SA biosensors, fusion protein in solution, 1:1 fit. As for the experimental part: (§1) The binding constants for the cFc fusion proteins provided in Tables 3 and 4 below, were determined using OCTET® HTX. All kinetics measurements were performed by OCTET® HTX using SA® biosensors and DATA ACQUISITION® 12.0 software. 10 μg/mL of biotin-labeled antigen, either canine IL-4 (cIL-4) or canine IL-13 (cIL-13) were loaded onto the SAR biosensors for 120 seconds. Next, the biosensors were placed into 1×pH 7.0 TBS/Casein buffer for 60 seconds for the blocking phase. For the association phase, antigen loaded biosensors were placed into 2-fold serial dilutions from 1 μM down to 15.6 nM of the wild-type, the bispecific, or the FcRn-mutant receptor Fc-fusions that recognized the cIL-4 or cIL-13 antigen in 1×pH 7.0 TBS/Casein buffer for 30 seconds. The last well was buffer alone and that sensor was used for reference sensor subtraction. Finally, the biosensors were placed into 1×pH 7.0 TBS/Casein buffer for 120 seconds for the dissociation phase. The results were then analyzed using Data Analysis 12.0 software and the curves were fitted using a 1:1 binding model.
(In BLI a coated tip is dipped into the sample, and binding shifts an interference pattern.)

For test [2], the target named is T1, canine IL-13. In words: BLI (Octet). On the procedure:
as §1

In test [3] the target is T1, canine IL-13. In words: BLI (Octet); summary table, rounded from Table 4.
The target in test [4] is T1, canine IL-13. In words: cell-based or functional assay.
Test [5] has as its target T1, canine IL-13. In words: cell-based or functional assay. The source holds these as a separate data set.

In general, Kd refers to the constant that tells how readily two partners part at equilibrium. High values mean weaker binding, low ones tighter binding. The koff is the rate constant with which the complex falls apart. A high value points to a short-lived complex. Usually kon stands for a measure of how fast the partners come together. Low readings indicate slower complex formation, high ones faster complex formation.

B1: cIL-13Rα2-cIgGB-Fc-YD (Fc fusion)
chain: SMLSNAEIKVNPPQDFEIVDPGYLGYLSLQWQPPLFPDNFKECTIEYELKYRNIDSENWKTIITKNLHYKDGFDLNKGIEAKINTLLPAQCTNGSEVRSSWAETTYWTSPQGNRETKIQDMDCVYYNWQYLVCSWKPGMGVHFDTNYQLFYWYEGLDHSAECTDYIKVNGKNMGCRFPYLESSDYKDFYICVNGSSESQPIRPSYFIFQLQNIVKPMPPDYLSLTVKNSEEINLKWNMPKGPIPAKCFIYEIEFTEDGTTWVTTTVENEIQITRTSNESQKLCFLVRSKVNIYCSDDGIWSEWSDEQCWKGDIWKETPKRENGRVPRPPDCPKCPAPEMLGGPSVFIFPPKPKDTLYIARDPEVTCVVVDLDPEDPEVQISWFVDGKQMQTAKTQPREEQFNGTYRVVSVLPIGHQDWLKGKQFTCKVNNKALPSPIERTISKARGQAHQPSVYVLPPSREELSKNTVSLTCLIKDFFPPDIDVEWQSNGQQEPESKYRTTPPQLDEDGSYFLYSKLSVDKSRWQRGDTFICAVMHEALHNHYTQESLSHSPGK
notes: Homodimer; also called cIL-13Rα2-cFc-YD
In the test with canine IL-13 [1], B1 had a Kd of 0.00044 nM, a koff of 5.07e-07 s⁻¹ and a kon of 1.15e+06 M⁻¹ s⁻¹. The “fold decrease of KD against unmodified cIL-13Rα2-cFc” value with canine IL-13 [2] is about 2 fold.

B2: cIL-13Rα2-cIgGB-Fc (Fc fusion)
chain: SMLSNAEIKVNPPQDFEIVDPGYLGYLSLQWQPPLFPDNFKECTIEYELKYRNIDSENWKTIITKNLHYKDGFDLNKGIEAKINTLLPAQCTNGSEVRSSWAETTYWTSPQGNRETKIQDMDCVYYNWQYLVCSWKPGMGVHFDTNYQLFYWYEGLDHSAECTDYIKVNGKNMGCRFPYLESSDYKDFYICVNGSSESQPIRPSYFIFQLQNIVKPMPPDYLSLTVKNSEEINLKWNMPKGPIPAKCFIYEIEFTEDGTTWVTTTVENEIQITRTSNESQKLCFLVRSKVNIYCSDDGIWSEWSDEQCWKGDIWKETPKRENGRVPRPPDCPKCPAPEMLGGPSVFIFPPKPKDTLLIARTPEVTCVVVDLDPEDPEVQISWFVDGKQMQTAKTQPREEQFNGTYRVVSVLPIGHQDWLKGKQFTCKVNNKALPSPIERTISKARGQAHQPSVYVLPPSREELSKNTVSLTCLIKDFFPPDIDVEWQSNGQQEPESKYRTTPPQLDEDGSYFLYSKLSVDKSRWQRGDTFICAVMHEALHNHYTQESLSHSPGK
notes: Homodimer; also called cIL-13Rα2-cFc; cIL13Rα2-cFc
In the test with canine IL-13 [1], B2 displayed a Kd of 0.000744 nM, a koff of 7.45e-07 s⁻¹ and a kon of 1e+06 M⁻¹ s⁻¹. The Kd with canine IL-13 [3] came out at 0.0007 nM. Besides, in the test with canine IL-13 [4], the “IL-13 IC50 (inhibition of cIL-13 mediated STAT6 phosphorylation in DH82 cells)” value was determined as 0.165 nM. For the same molecule, the “IL-13 (IC50), summary table” value in the test with canine IL-13 [5] was 0.2 nM.

B3: cIL-13Rα1-cIgGB-Fc-YTE (Fc fusion)
chain: GGVAAPTETQPPVTNLSVSVENLCTVIWTWDPPEGASPNCTLRYFSHFDNKQDKKIAPETHRSKEVPLNERICLQVGSQCSTNESDNPSILVEKCTPPPEGDPESAVTELQCVWHNLSYMKCTWLPGRNTSPDTNYTLYYWHSSLGKILQCEDIYREGQHIGCSFALTNLKDSSFEQHSVQIVVKDNAGKIRPSFNIVPLTSHVKPDPPHIKRLFFQNGNLYVQWKNPQNFYSRCLSYQVEVNNSQTETNDIFYVEEAKCQNSEFEGNLEGTICFMVPGVLPDTLNTVRIRVRTNKLCYEDDKLWSNWSQAMSIGENTDPTPKRENGRVPRPPDCPKCPAPEMLGGPSVFIFPPKPKDTLYITREPEVTCVVVDLDPEDPEVQISWFVDGKQMQTAKTQPREEQFNGTYRVVSVLPIGHQDWLKGKQFTCKVNNKALPSPIERTISKARGQAHQPSVYVLPPSREELSKNTVSLTCLIKDFFPPDIDVEWQSNGQQEPESKYRTTPPQLDEDGSYFLYSKLSVDKSRWQRGDTFICAVMHEALHNHYTQESLSHSPGK
notes: Homodimer; also called cIL-13Rα1-cFc-YTE
Consider B3, for which, in the test with canine IL-13 [1], binding was characterised by a dissociation constant (Kd) of 16.5 nM, the koff amounted to 0.0011 s⁻¹ and the kon stood at 66500 M⁻¹ s⁻¹. Further, the “fold decrease in affinity against unmodified cIL-13Rα1-cFc” value with canine IL-13 [2] was about 4 fold.

(Values after patent US20250325630A1, “HOMODIMER FUSION PROTEINS FOR TREATING ATOPIC DERMATITIS” (Intervet Inc., priority 2021, published 2025).)
